In publication PMC3135403 (The Journal of Cell Biology, 2011) one finds binding result and Kd data, which are given here for four molecules.

The target in series [1] is T1, GST-BakΔTM (human, UniProt Q16611 1-186).
T1 sequence (looked up): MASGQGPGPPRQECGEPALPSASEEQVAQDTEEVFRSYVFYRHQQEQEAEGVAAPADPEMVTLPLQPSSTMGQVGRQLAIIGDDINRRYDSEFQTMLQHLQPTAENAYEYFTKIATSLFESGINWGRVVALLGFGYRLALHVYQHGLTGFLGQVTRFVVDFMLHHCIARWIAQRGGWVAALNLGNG
In words: SPR. On the technique in general: Surface plasmon resonance follows binding to a sensor surface in real time, without labels.

The series “SEC” deals with the molecule itself. Kind of series: SEC.
In series [2] the target is T1, GST-BakΔTM. Kind of series: SPR. The source holds these as a separate data set.
In another series the target is T2, GST-Bak 93E (human, UniProt Q16611 1-186, Bak 93E).
T2 sequence (looked up): T1 sequence (looked up) with F93E
In words: SPR.

The target of the next series is T3, GST-Bak 93E/114E (human, UniProt Q16611 1-186, Bak 93E/114E (93E) | Bak 93E/114E (114E)).
T3 sequence (looked up): T1 sequence (looked up) with F93E, I114E
In words: SPR.

Another series addresses T4, GST-BakΔTM R36A (human, UniProt Q16611 1-186, R36A).
T4 sequence (looked up): T1 sequence (looked up) with R36A
Kind of series: SPR.

Another series addresses T5, GST-Bak 114E (human, UniProt Q16611 1-186, Bak 114E).
T5 sequence (looked up): T1 sequence (looked up) with I114E
In words: SPR.

Residue numbers refer to the chain shown, from its start. In names and notes the source's numbering stands.

As for MPGKKARKNAQPSPARAPAELEVECATQLRRFGDKLNFRQ (domain or fragment, human, UniProt Q13794-1 1-40, looked up) [NoxaΔCT], in the series with GST-BakΔTM [1], the binding result was “binds”.

B1: tBid (domain or fragment, human, UniProt P55957 61-195, looked up)
chain: GNRSSHSRLGRIEADSESQEDIIRNIARHLAQVGDSMDRSIPPGLVNGLALQLRNTSRSEEDRNRDLATALEQLLQAYPRDMEKEKTMLVLALLLAKKVASHTPSLLRDVFHTTVNFINQNLRTYVRSLARNGMD
Consider B1, for which the binding result with GST-BakΔTM [1] is listed as “binds”.

B2: His6-Bak R36A (domain or fragment, human, UniProt Q16611 1-186, looked up)
chain: T1 sequence (looked up) with R36A
Take B2: the binding result in the series “SEC” was “binds”.

B3: Noxa (full-length, S peptide and His6 tagged) (natural protein, human, UniProt Q13794-1 1-54, looked up)
chain: MPGKKARKNAQPSPARAPAELEVECATQLRRFGDKLNFRQKLLNLISKLFCSGT
For orientation: Kd means the constant that tells how readily two partners part at equilibrium. With B3, in the series with GST-BakΔTM [2], the Kd worked out at 24 nM. The binding result with GST-Bak 93E, with GST-Bak 93E/114E, with GST-BakΔTM R36A and with GST-Bak 114E was “binds” throughout.
